Data reported in patent publication US9738911B2, “Methods of producing 7-carbon chemicals via pyruvate and succinate semialdehyde aldol condensation” (INVISTA North America S.a r.l., priority 2012, dated 2017).

B1: SEQ ID NO 3: Mycobacterium smegmatis carboxylate reductase (Genbank Accession No. ABK71854.1) (protein, listed as Mycobacterium smegmatis)
chain: MTSDVHDATDGVTETALDDEQSTRRIAELYATDPEFAAAAPLPAVVDAAHKPGLRLAEILQTLFTGYGDRPALGYRARELATDEGGRTVTRLLPRFDTLTYAQVWSRVQAVAAALRHNFAQPIYPGDAVATIGFASPDYLTLDLVCAYLGLVSVPLQHNAPVSRLAPILAEVEPRILTVSAEYLDLAVESVRDVNSVSQLVVFDHHPEVDDHRDALARAREQLAGKGIAVTTLDAIADEGAGLPAEPIYTADHDQRLAMILYTSGSTGAPKGAMYTEAMVARLWTMSFITGDPTPVINVNFMPLNHLGGRIPISTAVQNGGTSYFVPESDMSTLFEDLALVRPTELGLVPRVADMLYQHHLATVDRLVTQGADELTAEKQAGAELREQVLGGRVITGFVSTAPLAAEMRAFLDITLGAHIVDGYGLTETGAVTRDGVIVRPPVIDYKLIDVPELGYFSTDKPYPRGELLVRSQTLTPGYYKRPEVTASVFDRDGYYHTGDVMAETAPDHLVYVDRRNNVLKLAQGEFVAVANLEAVFSGAALVRQIFVYGNSERSFLLAVVVPTPEALEQYDPAALKAALADSLQRTARDAELQSYEVPADFIVETEPFSAANGLLSGVGKLLRPNLKDRYGQRLEQMYADIAATQANQLRELRRAAATQPVIDTLTQAAATILGTGSEVASDAHFTDLGGDSLSALTLSNLLSDFFGFEVPVGTIVNPATNLAQLAQHIEAQRTAGDRRPSFTTVHGADATEIRASELTLDKFIDAETLRAAPGLPKVTTEPRTVLLSGANGWLGRFLTLQWLERLAPVGGTLITIVRGRDDAAARARLTQAYDTDPELSRRFAELADRHLRVVAGDIGDPNLGLTPEIWHRLAAEVDLVVHPAALVNHVLPYRQLFGPNVVGTAEVIKLALTERIKPVTYLSTVSVAMGIPDFEEDGDIRTVSPVRPLDGGYANGYGNSKWAGEVLLREAHDLCGLPVATFRSDMILAHPRYRGQVNVPDMFTRLLLSLLITGVAPRSFYIGDGERPRAHYPGLTVDFVAEAVTTLGAQQREGYVSYDVMNPHDDGISLDVFVDWLIRAGHPIDRVDDYDDWVRRFETALTALPEKRRAQTVLPLLHAFRAPQAPLRGAPEPTEVFHAAVRTAKVGPGDIPHLDEALIDKYIRDLREFGLI
B2: SEQ ID NO 10: Pseudomonas syringae ω-transaminase (Genbank Accession No. AAY39893.1) (protein, listed as Pseudomonas syringae)
chain: MSANNPQTLEWQALSSEHHLAPFSDYKQLKEKGPRIITRAEGVYLWDSEGNKILDGMSGLWCVAIGYGREELADAASKQMRELPYYNLFFQTAHPPVLELAKAISDIAPEGMNHVFFTGSGSEGNDTMLRMVRHYWALKGQPNKKTIISRVNGYHGSTVAGASLGGMTYMHEQGDLPIPGVVHIPQPYWFGEGGDMTPDEFGIWAAEQLEKKILELGVENVGAFIAEPIQGAGGVIVPPDSYWPKIKEILSRYDILFAADEVICGFGRTSEWFGSDFYGLRPDMMTIAKGLTSGYVPMGGLIVRDEIVAVLNEGGDFNHGFTYSGHPVAAAVALENIRILREEKIVERVRSETAPYLQKRLRELSDHPLVGEVRGVGLLGAIELVKDKTTRERYTDKGAGMICRTFCFDNGLIMRAVGDTMIIAPPLVISFAQIDELVEKARTCLDLTLAVLQG
B3: SEQ ID NO 8: Chromobacterium violaceum ω-transaminase (Genbank Accession No. AAQ59697.1) (protein, listed as Chromobacterium violaceum)
chain: MQKQRTTSQWRELDAAHHLHPFTDTASLNQAGARVMTRGEGVYLWDSEGNKIIDGMAGLWCVNVGYGRKDFAEAARRQMEELPFYNTFFKTTHPAVVELSSLLAEVTPAGFDRVFYTNSGSESVDTMIRMVRRYWDVQGKPEKKTLIGRWNGYHGSTIGGASLGGMKYMHEQGDLPIPGMAHIEQPWWYKHGKDMTPDEFGVVAARWLEEKILEIGADKVAAFVGEPIQGAGGVIVPPATYWPEIERICRKYDVLLVADEVICGFGRTGEWFGHQHFGFQPDLFTAAKGLSSGYLPIGAVFVGKRVAEGLIAGGDFNHGFTYSGHPVCAAVAHANVAALRDEGIVQRVKDDIGPYMQKRWRETFSRFEHVDDVRGVGMVQAFTLVKNKAKRELFPDFGEIGTLCRDIFFRNNLIMRACGDHIVSAPPLVMTRAEVDEMLAVAERCLEEFEQTLKARGLA
B4: SEQ ID NO 13: Vibrio fluvialis ω-transaminase (Genbank Accession No. AEA39183.1) (protein, listed as Vibrio fluvialis)
chain: MNKPQSWEARAETYSLYGFTDMPSLHQRGTVVVTHGEGPYIVDVNGRRYLDANSGLWNMVAGFDHKGLIDAAKAQYERFPGYHAFFGRMSDQTVMLSEKLVEVSPFDSGRVFYTNSGSEANDTMVKMLWFLHAAEGKPQKRKILTRWNAYHGVTAVSASMTGKPYNSVFGLPLPGFVHLTCPHYWRYGEEGETEEQFVARLARELEETIQREGADTIAGFFAEPVMGAGGVIPPAKGYFQAILPILRKYDIPVISDEVICGFGRTGNTWGCVTYDFTPDAIISSKNLTAGFFPMGAVILGPELSKRLETAIEAIEEFPHGFTASGHPVGCAIALKAIDVVMNEGLAENVRRLAPRFEERLKHIAERPNIGEYRGIGFMWALEAVKDKASKTPFDGNLSVSERIANTCTDLGLICRPLGQSVVLCPPFILTEAQMDEMFDKLEKALDKVFAEVA

Experiments:
Type in all cases: biochemical
[1] = ω-transaminase activity assay, reverse direction, 7-aminoheptanoate to pimelate semialdehyde; conditions: 10 mM 7-aminoheptanoate, 10 mM pyruvate, cell free extract, 25° C., 4 h; against empty vector control (FIG. 15)
Method: (§1) A sequence encoding an N-terminal His-tag was added to the genes from Chromobacterium violaceum, Pseudomonas syringae, Rhodobacter sphaeroides, and Vibrio Fluvialis encoding the ω-transaminases of SEQ ID NOs: 8, 10, 11 and 13, respectively (see FIGS. 7F-7G) such that N-terminal HIS tagged ω-transaminases could be produced. Each of the resulting modified genes was cloned into a pET21a expression vector under control of the T7 promoter and each expression vector was transformed into a BL21[DE3] E. coli host. The resulting recombinant E. coli strains were cultivated at 37° C. in a 250 mL shake flask culture containing 50 mL LB media and antibiotic selection pressure, with shaking at 230 rpm. Each culture was induced overnight at 16° C. using 1 mM IPTG.
(§2) The pellet from each induced shake flask culture was harvested via centrifugation. Each pellet was resuspended and lysed via sonication. The cell debris was separated from the supernatant via centrifugation and the cell free extract was used immediately in enzyme activity assays.
Enzyme activity assays in the reverse direction (i.e., 7-aminoheptanoate to pimelate semialdehyde) were performed in a buffer composed of a final concentration of 50 mM HEPES buffer (pH=7.5), 10 mM 7-aminoheptanoate, 10 mM pyruvate and 100 μM pyridoxyl 5′ phosphate. Each enzyme activity assay reaction was initiated by adding cell free extract of the ω-transaminase gene product or the empty vector control to the assay buffer containing the 7-aminoheptanoate and incubated at 25° C. for 4 h, with shaking at 250 rpm. The formation of L-alanine from pyruvate was quantified via RP-HPLC.

[2] = ω-transaminase activity assay, 7-aminoheptanol to 7-oxoheptanol; conditions: for substrate acceptance, formation of L-alanine by RP-HPLC: 10 mM 7-aminoheptanol, 10 mM pyruvate, cell free extract, 25° C., 4 h, against empty vector control (FIG. 19); for acceptance of 7-oxoheptanol, forming 7-aminoheptanol, concluded from reversibility: concluded from the reverse direction assay and Example 2
Method: A nucleotide sequence encoding an N-terminal His-tag was added to the Chromobacterium violaceum, Pseudomonas syringae and Rhodobacter sphaeroides genes encoding the ω-transaminases of SEQ ID NOs: 8, 10 and 11, respectively (see FIGS. 7F and 7G) such that N-terminal HIS tagged ω-transaminases could be produced. The modified genes were cloned into a pET21a expression vector under the T7 promoter.
Each expression vector was transformed into a BL21[DE3] E. coli host. Each resulting recombinant E. coli strain were cultivated at 37° C. in a 250 mL shake flask culture containing 50 mL LB media and antibiotic selection pressure, with shaking at 230 rpm. Each culture was induced overnight at 16° C. using 1 mM IPTG.
as §2
Enzyme activity assays in the reverse direction (i.e., 7-aminoheptanol to 7-oxoheptanol) were performed in a buffer composed of a final concentration of 50 mM HEPES buffer (pH=7.5), 10 mM 7-aminoheptanol, 10 mM pyruvate, and 100 μM pyridoxyl 5′ phosphate. Each enzyme activity assay reaction was initiated by adding cell free extract of the ω-transaminase gene product or the empty vector control to the assay buffer containing the 7-aminoheptanol and then incubated at 25° C. for 4 h, with shaking at 250 rpm. The formation of L-alanine was quantified via RP-HPLC.

[3] = ω-transaminase activity assay, forward direction, pimelate semialdehyde to 7-aminoheptanoate; conditions: for substrate acceptance, formation of pyruvate from L-alanine by RP-HPLC: 10 mM pimelate semialdehyde, 10 mM L-alanine, cell free extract, 25° C., 4 h, against empty vector control (FIG. 16); for reversibility of ω-transaminase activity: pimelate semialdehyde accepted, 7-aminoheptanoate synthesized: conclusion from the forward and reverse assays of Example 2
Method: as §1, §2
Enzyme activity in the forward direction (i.e., pimelate semialdehyde to 7-aminoheptanoate) was confirmed for the transaminases of SEQ ID NO 10, SEQ ID NO 11 and SEQ ID NO 13. Enzyme activity assays were performed in a buffer composed of a final concentration of 50 mM HEPES buffer (pH=7.5), 10 mM pimelate semialdehyde, 10 mM L-alanine and 100 μM pyridoxyl 5′ phosphate. Each enzyme activity assay reaction was initiated by adding a cell free extract of the ω-transaminase gene product or the empty vector control to the assay buffer containing the pimelate semialdehyde and incubated at 25° C. for 4 h, with shaking at 250 rpm. The formation of pyruvate was quantified via RP-HPLC.

[4] = Carboxylate reductase activity assay, N7-acetyl-7-aminoheptanoate to N7-acetyl-7-aminoheptanal; conditions: 2 mM N7-acetyl-7-aminoheptanoate, 1 mM ATP, 1 mM NADPH, enhanced by sfp gene product, room temperature, 20 min; against empty vector control (FIG. 12)
Method: The activity of each of the N-terminal His-tagged carboxylate reductases of SEQ ID NOs: 3, 6, and 7 (see Examples 4, and FIGS. 7B, 7E, and 7F) for converting N7-acetyl-7-aminoheptanoate to N7-acetyl-7-aminoheptanal was assayed in triplicate in a buffer composed of a final concentration of 50 mM HEPES buffer (pH=7.5), 2 mM N7-acetyl-7-aminoheptanoate, 10 mM MgCl2, 1 mM ATP, and 1 mM NADPH. The assays were initiated by adding purified carboxylate reductase and phosphopantetheine transferase or the empty vector control to the assay buffer containing the N7-acetyl-7-aminoheptanoate then incubated at room temperature for 20 min. The consumption of NADPH was monitored by absorbance at 340 nm.

| Molecule | substrate acceptance, formation of L-alanine from pyruvate by RP-HPLC [1] | substrate acceptance, formation of L-alanine by RP-HPLC [2] | acceptance of 7-oxoheptanol, forming 7-aminoheptanol, concluded from reversibility [2] | substrate acceptance, formation of pyruvate from L-alanine by RP-HPLC [3] | reversibility of ω-transaminase activity: pimelate semialdehyde accepted, 7-aminoheptanoate synthesized [3] | substrate acceptance, consumption of NADPH by absorbance at 340 nm [4] |
| --- | --- | --- | --- | --- | --- | --- |
| SEQ ID NO 11: Rhodobacter sphaeroides ω-transaminase (Genbank Accession No. ABA81135.1) | accepted 7-aminoheptanote as substrate | accepted 7-aminoheptanol as substrate | accept 7-oxoheptanol as substrate and form 7-aminoheptanol | accepted pimelate semialdehyde as substrate | accepted pimelate semialdehyde as substrate and synthesized 7-aminoheptanoate as a reaction product |  |
| B1 |  |  |  |  |  | accepted N7-acetyl-7-aminoheptanoate as substrate |
| B2 | accepted 7-aminoheptanote as substrate | accepted 7-aminoheptanol as substrate | accept 7-oxoheptanol as substrate and form 7-aminoheptanol | accepted pimelate semialdehyde as substrate | accepted pimelate semialdehyde as substrate and synthesized 7-aminoheptanoate as a reaction product |  |
| B3 | accepted 7-aminoheptanote as substrate | accepted 7-aminoheptanol as substrate | accept 7-oxoheptanol as substrate and form 7-aminoheptanol |  | accepted pimelate semialdehyde as substrate and synthesized 7-aminoheptanoate as a reaction product |  |
| B4 | accepted 7-aminoheptanote as substrate |  |  | accepted pimelate semialdehyde as substrate | accepted pimelate semialdehyde as substrate and synthesized 7-aminoheptanoate as a reaction product |  |
